Legend:
Test in all cases: EMSA
DmTHAP R66A = biological target: T1, DmTHAP R66A (Drosophila melanogaster, UniProt Q7M3K2 1-77, R66A)
T1 sequence: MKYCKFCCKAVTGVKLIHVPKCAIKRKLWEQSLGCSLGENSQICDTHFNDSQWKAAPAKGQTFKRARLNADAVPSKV

DmTHAP dY2,K3 = biological target: T2, DmTHAP dY2,K3 (Drosophila melanogaster, UniProt Q7M3K2 1-77, del2-3)
T2 sequence: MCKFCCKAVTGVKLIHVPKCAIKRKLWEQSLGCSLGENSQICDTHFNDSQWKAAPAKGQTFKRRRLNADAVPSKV

DmTHAP Q42A = biological target: T3, DmTHAP Q42A (Drosophila melanogaster, UniProt Q7M3K2 1-77, Q42A)
T3 sequence: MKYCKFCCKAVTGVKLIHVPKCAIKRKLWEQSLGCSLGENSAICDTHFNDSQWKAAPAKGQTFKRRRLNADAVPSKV

DmTHAP H18A = biological target: T4, DmTHAP H18A (Drosophila melanogaster, UniProt Q7M3K2 1-77, H18A)
T4 sequence: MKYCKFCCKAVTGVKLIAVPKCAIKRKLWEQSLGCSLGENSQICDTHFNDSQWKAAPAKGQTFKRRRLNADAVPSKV

DmTHAP H18A Q42A = biological target: T5, DmTHAP H18A Q42A (Drosophila melanogaster, UniProt Q7M3K2 1-77, H18A;Q42A)
T5 sequence: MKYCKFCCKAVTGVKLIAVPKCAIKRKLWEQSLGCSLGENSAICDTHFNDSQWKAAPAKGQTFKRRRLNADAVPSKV

DmTHAP R65A = biological target: T6, DmTHAP R65A (Drosophila melanogaster, UniProt Q7M3K2 1-77, R65A)
T6 sequence: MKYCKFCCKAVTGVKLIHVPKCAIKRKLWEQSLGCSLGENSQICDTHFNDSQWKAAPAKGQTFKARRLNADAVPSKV

DmTHAP R65A R67A = biological target: T7, DmTHAP R65A R67A (Drosophila melanogaster, UniProt Q7M3K2 1-77, R65A;R67A)
T7 sequence: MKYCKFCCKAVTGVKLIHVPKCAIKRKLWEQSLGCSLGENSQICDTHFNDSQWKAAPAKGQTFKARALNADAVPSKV

DmTHAP R67A = biological target: T8, DmTHAP R67A (Drosophila melanogaster, UniProt Q7M3K2 1-77, R67A)
T8 sequence: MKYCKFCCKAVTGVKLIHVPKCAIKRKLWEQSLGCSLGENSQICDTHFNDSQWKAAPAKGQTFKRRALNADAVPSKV

[1] = biological target: T9, DmTHAP (P element transposase THAP domain) (Drosophila melanogaster, UniProt Q7M3K2 1-77)
T9 sequence: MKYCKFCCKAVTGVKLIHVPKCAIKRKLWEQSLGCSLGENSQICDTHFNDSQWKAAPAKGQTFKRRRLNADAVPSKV

B1: 15mer duplex with transposase site (dsDNA)
DNA 1: GAGGTTAAGTGGATGT
DNA 2: TACATCCACTTAAC
- binding result (DmTHAP R66A): no binding
- binding signal (DmTHAP dY2,K3): ~3 fold reduction in affinity vs WT
- binding signal (DmTHAP Q42A): ~15 fold reduction in affinity vs WT
- binding signal (DmTHAP H18A): ~12 fold reduction in affinity vs WT
- binding signal (DmTHAP H18A Q42A): ~20 fold reduction in affinity vs WT
- binding signal (DmTHAP R65A): ~21 fold reduction in affinity vs WT
- binding signal (DmTHAP R65A R67A): ~42 fold reduction in affinity vs WT
- binding signal (DmTHAP R67A): ~17 fold reduction in affinity vs WT
- binding signal [1]: 1 fold reduction in affinity vs WT (reference)
